In paper PMC2366074:

Molecular target: T1, inositol monophosphatase (IMPase) (UniProt P29218)
T1 sequence: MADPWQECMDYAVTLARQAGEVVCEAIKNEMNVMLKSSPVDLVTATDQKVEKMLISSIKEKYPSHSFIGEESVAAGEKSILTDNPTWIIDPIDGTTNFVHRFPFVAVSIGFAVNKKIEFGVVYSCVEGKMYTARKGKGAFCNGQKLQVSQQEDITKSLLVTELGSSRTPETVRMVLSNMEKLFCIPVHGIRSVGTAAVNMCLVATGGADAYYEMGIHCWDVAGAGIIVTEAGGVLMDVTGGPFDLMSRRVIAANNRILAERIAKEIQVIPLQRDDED

B1: recombinant calbindin (natural protein)
chain: MAESHLQSSLITASQFFEIWLHFDADGSGYLEGKELQNLIQELQQARKKAGLELSPEMKTFVDQYGQRDDGKIGIVELAHVLPTEENFLLLFRCQQLKSCEEFMKTWRKYDTDHSGFIETEELKNFLKDLLEKANKTVDDTKLAEYTDLMLKLFDSNNDGKLELTEMARLLPVQENFLLKFQGIKMCGKEFNKAFELYDQDGNGYIDENELDALLKDLCEKNKQDLDINNITTYKKNIMALSDGGKLYRTDLALILCAGDN
Which IMPase activity in brain homogenates (Pi release from inositol-1-phosphate) with 20 uM recombinant calbindin does the source give for B1 here?
The IMPase activity in brain homogenates (Pi release from inositol-1-phosphate) with 20 uM recombinant calbindin was 1.66 fold.
